B1: NCOA4 383-522-GST (domain or fragment, human, UniProt Q13772-1 383-522, looked up)
chain: SMVTEDWLVQNHQDPCKVEEVCRANEPCTSFAECVCDENCEKEALYKWLLKKEGKDKNGMPVEPKPEPEKHKDSLNMWLCPRKEVIEQTKAPKAMTPSRIADSFQVIKNSPLSEWLIRPPYKEGSPKEVPGTEDRAGKQK
notes: also called NCOA4-GST; source: E. coli BL21 (DE3) Rosetta, purified (Ni-IMAC, glutathione Sepharose, Senp1 cleavage); not shown: His6-Sumo, N-terminal, cleaved; GST, C-terminal, kept

Conditions in all cases: both partners purified
For test [1], the target named is T1, recombinant FTH1-only ferritin complex, wild type (human, UniProt P02794 2-183).
T1 construct: Purified as 450 kDa complexes; also called FTH1^WT; FTH1-only complexes; source: E. coli, purified (Ni-IMAC, Senp1 cleavage, Q-sepharose, Superose 6 gel filtration); not shown: His6-Sumo, N-terminal, cleaved; copies: 24
T1 sequence (P02794 2-183, one chain of several): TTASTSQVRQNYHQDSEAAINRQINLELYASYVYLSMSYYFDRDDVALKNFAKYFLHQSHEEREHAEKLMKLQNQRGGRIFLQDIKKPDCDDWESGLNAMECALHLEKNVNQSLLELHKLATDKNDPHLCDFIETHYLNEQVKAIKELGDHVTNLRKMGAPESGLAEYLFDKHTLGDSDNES
The experiment in a line: pull-down; NCOA4 383-522-GST on glutathione Sepharose 4B, mixed with 50 μg recombinant FTH1-only or FTL-only complexes; 30 min at 4°C; 150 mM NaCl, 20 mM Tris pH 7.4, 2 mM DTT, 0.5% Nonidet P-40; Coomassie stain.

Test [2] addresses T2, apoferritin purified from horse spleen (containing both FTH1 and FTL) (horse, UniProt Q8MIP0 1-182; P02791 1-175).
T2 construct: ferritin heavy chain (FTH1), horse, from spleen apoferritin; ferritin light chain (FTL), horse, from spleen apoferritin; Ferritin is a complex of 24 subunits, a mixture of heavy and light chains; also called horse spleen apoferritin; apoferritin purified from equine spleen; source: bought: Sigma A3641, apoferritin purified from equine spleen
The experiment in a line: pull-down; NCOA4-GST fragments on glutathione Sepharose 4B, mixed with 50 μg apoferritin from equine spleen; 30 min at 4°C; 150 mM NaCl, 20 mM Tris pH 7.4, 2 mM DTT, 0.5% Nonidet P-40; SDS-PAGE and Coomassie stain.

Test [3] addresses T3, recombinant HERC2 2540-2700 (human, UniProt O95714 2540-2700).
T3 construct: HERC2, residues 2540-2700; source: E. coli, purified (Ni-IMAC, Senp1 cleavage, Q-sepharose, Superdex 75); not shown: His6-Sumo, N-terminal, cleaved
T3 sequence (looked up): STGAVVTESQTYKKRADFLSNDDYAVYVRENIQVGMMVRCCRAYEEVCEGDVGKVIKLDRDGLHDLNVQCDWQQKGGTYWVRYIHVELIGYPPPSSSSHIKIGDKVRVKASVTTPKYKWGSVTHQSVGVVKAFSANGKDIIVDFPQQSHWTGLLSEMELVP
The experiment in a line: pull-down; NCOA4-GST fragments on glutathione Sepharose 4B (in one panel pre-treated with DFO), mixed with 50 μg recombinant HERC2 fragments; 30 min at 4°C; 150 mM NaCl, 20 mM Tris pH 7.4, 2 mM DTT, 0.5% Nonidet P-40; Coomassie stain.

In the test “NCOA4 383-522-GST” the target is B1. Described as above.

T2 sequence (Q8MIP0 whole entry, chain 1 of 2): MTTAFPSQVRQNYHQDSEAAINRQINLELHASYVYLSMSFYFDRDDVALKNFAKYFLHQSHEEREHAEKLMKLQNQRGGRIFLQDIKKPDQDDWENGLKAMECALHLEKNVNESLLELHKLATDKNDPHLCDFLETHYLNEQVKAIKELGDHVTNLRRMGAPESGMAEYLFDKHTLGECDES
T2 sequence (P02791 whole entry, chain 2 of 2): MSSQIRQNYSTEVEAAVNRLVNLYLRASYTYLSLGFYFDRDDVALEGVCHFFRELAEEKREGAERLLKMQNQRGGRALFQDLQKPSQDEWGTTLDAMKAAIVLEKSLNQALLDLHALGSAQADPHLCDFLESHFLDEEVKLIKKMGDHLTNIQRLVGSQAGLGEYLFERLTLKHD

Take B1: the binding result in test [1], in test [2] and in test [3] was “binds” in each case.

B2: NCOA4 475-522-GST (domain or fragment, human, UniProt Q13772-1 475-522, looked up)
chain: KAMTPSRIADSFQVIKNSPLSEWLIRPPYKEGSPKEVPGTEDRAGKQK
notes: source: E. coli BL21 (DE3) Rosetta, purified (Ni-IMAC, glutathione Sepharose, Senp1 cleavage); not shown: His6-Sumo, N-terminal, cleaved; GST, C-terminal, kept
For B2, the binding result in test [2] is reported as “binds”.

B3: recombinant HERC2 CUL7 domain (amino acids 2553-2639) (domain or fragment)
chain: not shown
notes: also called minimal CUL7 domain; source: E. coli, purified (Ni-IMAC, Senp1 cleavage, Q-sepharose, Superdex 75); not shown: His6-Sumo, N-terminal, cleaved
In the case of B3, the binding result with NCOA4 383-522-GST is “binds”.
